Results published in patent publication US20230192890A1.
Positions count from the first letter of the chain named.

T1: Ala mutant SEQ ID NO: 27 (human)
T1 sequence (peptide): AENMDDQWMQDEMEIGY

T2: Ala mutant SEQ ID NO: 28 (human)
T2 sequence (peptide): EANMDDQWMQDEMEIGY

T3: Ala mutant SEQ ID NO: 29 (human)
T3 sequence (peptide): EEAMDDQWMQDEMEIGY

T4: Ala mutant SEQ ID NO: 30 (human)
T4 sequence (peptide): EENADDQWMQDEMEIGY

T5: Ala mutant SEQ ID NO: 31 (human)
T5 sequence (peptide): EENMADQWMQDEMEIGY

T6: Ala mutant SEQ ID NO: 32 (human)
T6 sequence (peptide): EENMDAQWMQDEMEIGY

T7: Ala mutant SEQ ID NO: 33 (human)
T7 sequence (peptide): EENMDDAWMQDEMEIGY

T8: Ala mutant SEQ ID NO: 36 (human)
T8 sequence (peptide): EENMDDQWMADEMEIGY

T9: Ala mutant SEQ ID NO: 37 (human)
T9 sequence (peptide): EENMDDQWMQAEMEIGY

T10: Ala mutant SEQ ID NO: 38 (human)
T10 sequence (peptide): EENMDDQWMQDAMEIGY

T11: Ala mutant SEQ ID NO: 39 (human)
T11 sequence (peptide): EENMDDQWMQDEAEIGY

T12: Ala mutant SEQ ID NO: 40 (human)
T12 sequence (peptide): EENMDDQWMQDEMAIGY

T13: Ala mutant SEQ ID NO: 41 (human)
T13 sequence (peptide): EENMDDQWMQDEMEAGY

T14: Ala mutant SEQ ID NO: 42 (human)
T14 sequence (peptide): EENMDDQWMQDEMEIAY

T15: Ala mutant SEQ ID NO: 43 (human)
T15 sequence (peptide): EENMDDQWMQDEMEIGA

T16: Ala mutant having 3-amino acid substitution, SEQ ID NO: 44 (human)
T16 sequence (peptide): AAAMDDQWMQDEMEIGY

T17: Ala mutant having 3-amino acid substitution, SEQ ID NO: 47 (human)
T17 sequence (peptide): EENMDDQWMAAAMEIGY

T18: Ala mutant having 3-amino acid substitution, SEQ ID NO: 48 (human)
T18 sequence (peptide): EENMDDQWMQDEAAAGY

T19: Ala mutant having 3-amino acid substitution, SEQ ID NO: 49 (human)
T19 sequence (peptide): EENMDDQWMQDEMEIAA

T20: TA0096 (peptide antigen corresponding to positions 340 to 356 of PAD4) (human)
T20 sequence (peptide): EENMDDQWMQDEMEIGY

B1: A11 (antibody, IgG1, V domains shown)
VH: AVTLDESGGGLQTPGGALSLVCKASGFDFSSYGMGWMRQAPGKGLEYVAAIRNDGSWTGYGAAVKGHATISRDNGQSTVRLQLNNLRAEDTGTYYCAKTTGSRGGSIDAWGHGTEVIVS
VL: ASTQPSSVSANLGGTVEITCSGGGRYYYGWYQQKSPGSAPVTVIYANDKRPSDIPSRFSGSKSGSTGTLTITGVQAEDEAVYFCGSAETSSYVFGAGTTLTVL
B2: E9 (antibody, IgG1, V domains shown)
VH: B1 VH with A17T, A24G, D28T, A62S, H67R, G92A, T100S, R103S, I107V
VL: B1 VL
B3: G6 (antibody, IgG1, V domains shown)
VH: B1 VH with D28T, G35E, M37V, H67R, N74D, V79L, G92A, R103S
VL: B1 VL with G14E, E17K, R25N, V43L, D53N, S86T, E88D, S90G, S91K

Target: T1, Ala mutant SEQ ID NO: 27 (human)
Test: ELISA, peptide on plate (10 ug/mL)

Binder	absorbance 490 nm/630 nm
B1	1.95 OD
B2	1.89 OD
B3	1.91 OD

Target: T2, Ala mutant SEQ ID NO: 28 (human)
Test: ELISA, peptide on plate (10 ug/mL)

Binder	absorbance 490 nm/630 nm
B1	2 OD
B2	2 OD
B3	1.99 OD

Target: T3, Ala mutant SEQ ID NO: 29 (human)
Test: ELISA, peptide on plate (10 ug/mL)

Binder	absorbance 490 nm/630 nm
B1	2.05 OD
B2	1.92 OD
B3	1.95 OD

Target: T4, Ala mutant SEQ ID NO: 30 (human)
Test: ELISA, peptide on plate (10 ug/mL)

Binder	absorbance 490 nm/630 nm
B1	2.03 OD
B2	1.91 OD
B3	1.92 OD

Target: T5, Ala mutant SEQ ID NO: 31 (human)
Test: ELISA, peptide on plate (10 ug/mL)

Binder	absorbance 490 nm/630 nm
B1	1.67 OD
B2	1.38 OD
B3	1.77 OD

Target: T6, Ala mutant SEQ ID NO: 32 (human)
Test: ELISA, peptide on plate (10 ug/mL)

Binder	absorbance 490 nm/630 nm
B1	0.628 OD
B2	0.177 OD

Target: T7, Ala mutant SEQ ID NO: 33 (human)
Test: ELISA, peptide on plate (10 ug/mL)

Binder	absorbance 490 nm/630 nm
B1	2.09 OD
B2	1.93 OD
B3	1.98 OD

Target: T8, Ala mutant SEQ ID NO: 36 (human)
Test: ELISA, peptide on plate (10 ug/mL)

Binder	absorbance 490 nm/630 nm
B1	1.91 OD
B2	1.9 OD
B3	1.85 OD

Target: T9, Ala mutant SEQ ID NO: 37 (human)
Test: ELISA, peptide on plate (10 ug/mL)

Binder	absorbance 490 nm/630 nm
B1	1.8 OD
B2	1.2 OD
B3	1.85 OD

Target: T10, Ala mutant SEQ ID NO: 38 (human)
Test: ELISA, peptide on plate (10 ug/mL)

Binder	absorbance 490 nm/630 nm
B1	1.89 OD
B2	1.91 OD
B3	1.92 OD

Target: T11, Ala mutant SEQ ID NO: 39 (human)
Test: ELISA, peptide on plate (10 ug/mL)

Binder	absorbance 490 nm/630 nm
B1	1.89 OD
B2	1.77 OD
B3	1.83 OD

Target: T12, Ala mutant SEQ ID NO: 40 (human)
Test: ELISA, peptide on plate (10 ug/mL)

Binder	absorbance 490 nm/630 nm
B1	1.85 OD
B2	1.82 OD
B3	1.86 OD

Target: T13, Ala mutant SEQ ID NO: 41 (human)
Test: ELISA, peptide on plate (10 ug/mL)

Binder	absorbance 490 nm/630 nm
B1	1.85 OD
B2	1.8 OD
B3	1.87 OD

Target: T14, Ala mutant SEQ ID NO: 42 (human)
Test: ELISA, peptide on plate (10 ug/mL)

Binder	absorbance 490 nm/630 nm
B1	1.88 OD
B2	1.83 OD
B3	1.87 OD

Target: T15, Ala mutant SEQ ID NO: 43 (human)
Test: ELISA, peptide on plate (10 ug/mL)

Binder	absorbance 490 nm/630 nm
B1	1.92 OD
B2	1.88 OD
B3	1.87 OD

Target: T16, Ala mutant having 3-amino acid substitution, SEQ ID NO: 44 (human)
Test: ELISA, peptide on plate (10 ug/mL)

Binder	absorbance 490 nm/630 nm
B1	1.98 OD
B2	1.9 OD
B3	1.92 OD

Target: T17, Ala mutant having 3-amino acid substitution, SEQ ID NO: 47 (human)
Test: ELISA, peptide on plate (10 ug/mL)

Binder	absorbance 490 nm/630 nm
B1	1.25 OD
B2	1.34 OD
B3	1.73 OD

Target: T18, Ala mutant having 3-amino acid substitution, SEQ ID NO: 48 (human)
Test: ELISA, peptide on plate (10 ug/mL)

Binder	absorbance 490 nm/630 nm
B1	1.87 OD
B2	1.81 OD
B3	1.85 OD

Target: T19, Ala mutant having 3-amino acid substitution, SEQ ID NO: 49 (human)
Test: ELISA, peptide on plate (10 ug/mL)

Binder	absorbance 490 nm/630 nm
B1	1.89 OD
B2	1.85 OD
B3	1.88 OD

Target: T20, TA0096 (peptide antigen corresponding to positions 340 to 356 of PAD4) (human)
Test: ELISA, peptide on plate (10 ug/mL)

Binder	absorbance 490 nm/630 nm
B1	1.81 OD
B2	1.79 OD
B3	1.87 OD

Target: full-length recombinant mouse PAD4 (mouse) (UniProt Q9Z183)
Test: ELISA, mouse PAD4 on plate, antibody 1 ug/mL

full-length recombinant mouse PAD4 (mouse), sequence (Q9Z183 whole entry): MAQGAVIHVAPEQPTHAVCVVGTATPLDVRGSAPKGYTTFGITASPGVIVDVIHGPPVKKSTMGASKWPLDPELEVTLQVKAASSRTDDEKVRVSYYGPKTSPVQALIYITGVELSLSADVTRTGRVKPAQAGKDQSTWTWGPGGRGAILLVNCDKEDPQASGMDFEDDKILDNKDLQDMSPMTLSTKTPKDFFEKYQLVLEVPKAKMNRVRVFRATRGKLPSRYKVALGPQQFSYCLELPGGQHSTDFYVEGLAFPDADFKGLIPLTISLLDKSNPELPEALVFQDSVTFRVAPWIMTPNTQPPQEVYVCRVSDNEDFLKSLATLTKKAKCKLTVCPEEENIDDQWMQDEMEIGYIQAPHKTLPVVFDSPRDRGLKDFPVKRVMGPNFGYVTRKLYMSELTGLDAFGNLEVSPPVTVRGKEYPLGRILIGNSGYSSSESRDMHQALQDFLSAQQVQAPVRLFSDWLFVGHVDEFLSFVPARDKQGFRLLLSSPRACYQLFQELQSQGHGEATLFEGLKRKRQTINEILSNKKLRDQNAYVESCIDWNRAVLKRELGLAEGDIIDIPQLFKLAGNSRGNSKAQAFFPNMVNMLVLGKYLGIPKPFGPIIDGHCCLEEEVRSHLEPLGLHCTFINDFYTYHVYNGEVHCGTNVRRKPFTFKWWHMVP

Binder	absorbance 490 nm/630 nm
B1	2.24 OD
B2	2.23 OD
B3	2.27 OD

Target: full-length recombinant mouse PAD4 (mouse) (UniProt Q9Z183)
Test: ELISA, mouse PAD4 on plate, antibody 0.25 ug/mL

Binder	absorbance 490 nm/630 nm
B1	2.25 OD
B2	2.23 OD
B3	2.27 OD

Target: full-length recombinant mouse PAD4 (mouse) (UniProt Q9Z183)
Test: ELISA, mouse PAD4 on plate, antibody 0.0625 ug/mL

Binder	absorbance 490 nm/630 nm
B1	2.24 OD
B2	2.19 OD
B3	2.16 OD

Target: full-length recombinant mouse PAD4 (mouse) (UniProt Q9Z183)
Test: ELISA, mouse PAD4 on plate, antibody 0.015625 ug/mL

Binder	absorbance 490 nm/630 nm
B1	2.02 OD
B2	1.86 OD
B3	1.35 OD

Target: full-length recombinant mouse PAD4 (mouse) (UniProt Q9Z183)
Test: ELISA, mouse PAD4 on plate, antibody 0.0002441 ug/mL

Binder	absorbance 490 nm/630 nm
B1	0.152 OD
B2	0.122 OD
B3	0.071 OD

Target: full-length recombinant mouse PAD4 (mouse) (UniProt Q9Z183)
Test: ELISA, mouse PAD4 on plate, antibody 0.0009766 ug/mL

Binder	absorbance 490 nm/630 nm
B1	0.386 OD
B2	0.416 OD
B3	0.2 OD

Target: full-length recombinant mouse PAD4 (mouse) (UniProt Q9Z183)
Test: ELISA, mouse PAD4 on plate, antibody 0.0039063 ug/mL

Binder	absorbance 490 nm/630 nm
B1	1.07 OD
B2	0.956 OD
B3	0.55 OD

Target: full-length recombinant mouse PAD4 (mouse) (UniProt Q9Z183)
Test: ELISA, mouse PAD4 on plate, antibody 6.104E-05 ug/mL

Binder	absorbance 490 nm/630 nm
B1	0.045 OD
B2	0.051 OD
B3	0.044 OD
